According to PMC7292828, “Mechanical unfolding of a knotted protein unveils the kinetic and thermodynamic consequences of threading a polypeptide chain” (Scientific Reports, 2020):

B1: MJ0366 from Methanocaldococcus jannaschii, wild type (natural protein, UniProt Q57812 1-92, looked up)
chain: MPLVGFMKEKKRATFYLYKNIDGRKLRYLLHKLENVENVDIDTLRRAIEAEKKYKRSITLTEEEEVIIQRLGKSANLLLNCELVKLDEGERA
notes: MJ0366, Methanocaldococcus jannaschii, knotted protein of 92 residues; If it was, ENLYFQ would remain at the C-terminus; also called wild type protein
B2: MJ0366 construct F6C/G89C in the background of C81A (natural protein, Methanocaldococcus jannaschii, UniProt Q57812 1-92, looked up)
chain: MPLVGCMKEKKRATFYLYKNIDGRKLRYLLHKLENVENVDIDTLRRAIEAEKKYKRSITLTEEEEVIIQRLGKSANLLLNAELVKLDECERA
notes: MJ0366, Methanocaldococcus jannaschii, 92 residues; double cysteine mutant with C81A; A TEV site ENLYFQG stands between the C-terminus and the His tag; also called K6C/K89C (as printed once in the discussion)
B3: MJ0366 construct F6C/K73C in the background of C81A (natural protein, Methanocaldococcus jannaschii, UniProt Q57812 1-92, looked up)
chain: MPLVGCMKEKKRATFYLYKNIDGRKLRYLLHKLENVENVDIDTLRRAIEAEKKYKRSITLTEEEEVIIQRLGCSANLLLNAELVKLDEGERA
notes: MJ0366, Methanocaldococcus jannaschii, 92 residues; double cysteine mutant with C81A; A TEV site ENLYFQG stands between the C-terminus and the His tag
B4: MJ0366 construct K19C/K73C in the background of C81A (natural protein, Methanocaldococcus jannaschii, UniProt Q57812 1-92, looked up)
chain: MPLVGFMKEKKRATFYLYCNIDGRKLRYLLHKLENVENVDIDTLRRAIEAEKKYKRSITLTEEEEVIIQRLGCSANLLLNAELVKLDEGERA
notes: MJ0366, Methanocaldococcus jannaschii, 92 residues; double cysteine mutant with C81A; A TEV site ENLYFQG stands between the C-terminus and the His tag; also called F19C/K73C (as printed once in the results)

Molecular target: the molecule itself
Assay: SEC; size exclusion chromatography on a Superdex S75 column (GE Healthcare); dimeric state in solution

Q: How did the “stoichiometry N” value turn out when B1 was run?
A: 2

Q: How did the “stoichiometry N” value turn out when B2 was run?
A: 2

Q: For B3, which “stoichiometry N” value is on record?
A: 2

Q: How did the “stoichiometry N” value turn out when B4 was run?
A: 2
